Reference: US20130018176A1, “METHODS OF PRODUCING HYBRIDOMAS AND MONOCLONAL ANTIBODIES AND ANTIBODIES PRODUCED THEREBY” (AMGEN INC., priority 2007, published 2013)
Values belong to the molecule of their own block, whether it stands above or below them.

Key:
[1] = target: T1, Ferroportin expressed inducibly in 293 cells (Homo sapiens, UniProt Q9NP59); assay: In vitro hepcidin activity ferritin assay; type: cell-based; settings: 293 cells with tetracycline-inducible ferroportin; 1 μg/ml hepcidin; 17-20 hours
T1 construct: expressed in transfected cells; host or cells: 293 cells, tetracycline/doxycycline-inducible
T1 sequence (Q9NP59 1-571): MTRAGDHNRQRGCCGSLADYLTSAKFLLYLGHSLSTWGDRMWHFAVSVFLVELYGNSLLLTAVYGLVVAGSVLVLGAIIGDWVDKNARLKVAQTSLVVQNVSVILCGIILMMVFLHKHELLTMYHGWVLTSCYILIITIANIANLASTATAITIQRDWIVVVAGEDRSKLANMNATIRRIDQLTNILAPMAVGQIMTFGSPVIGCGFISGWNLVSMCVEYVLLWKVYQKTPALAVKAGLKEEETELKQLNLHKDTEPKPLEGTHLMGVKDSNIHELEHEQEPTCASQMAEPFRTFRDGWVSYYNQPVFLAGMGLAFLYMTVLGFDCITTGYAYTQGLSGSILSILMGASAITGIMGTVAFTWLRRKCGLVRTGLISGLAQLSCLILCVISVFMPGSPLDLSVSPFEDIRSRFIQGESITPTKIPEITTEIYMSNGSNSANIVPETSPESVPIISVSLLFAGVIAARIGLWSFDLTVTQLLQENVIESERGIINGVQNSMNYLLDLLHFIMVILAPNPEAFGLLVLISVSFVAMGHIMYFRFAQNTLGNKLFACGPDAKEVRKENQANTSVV
Description: Human hepcidin purified or produced according to Examples 1, 2, 3 and 4 was assayed for iron-regulating bioactivity in an in vitro cellular assay. […] The action of ferroportin can be reduced in a dose-dependent manner by hepcidin treatment.
293 cells expressing a tetracycline-inducible ferroportin gene were plated at 50,000 cells per well (70-80% density) in a 96 well BioCoat poly-D Lysine-coated plate in DMEM supplemented with 5% fetal bovine serum and a penicillin/streptomycin/glutamine supplement (Gibco BRL). After an overnight incubation at 37° C. with 5% CO2, the medium was replaced with assay medium (as above, but supplemented with 2.5 μg/ml doxycycline for […], 2.5 μg/ml iron citrate for iron supplemented wells and 1 μg/ml hepcidin for hepcidin treatment wells). The plate was further incubated for 17-20 hours as above before washing the wells in cold PBS and lysing in 120 ul of 1% Triton lysis buffer on ice for 15 minutes. 100 μl of lysates were used for ferritin analysis (Olympus AU400 clinical chemistry analyzer) and 10 μl for BCA protein assay (Pierce). Ferritin results were normalized for protein content.

human hepcidin = target: T2, human hepcidin (Homo sapiens, UniProt P81172); assay: Neutralization of injected human hepcidin in mice (hypoferremic response); type: in vivo; settings: 25 μg i.p. with isotype control antibody; female C57BL/6 mice; two hours
T2 construct: The pro-region of the protein was enzymatically cleaved by incubation with Kex protease; made in house; host or cells: E. coli
T2 sequence (P81172 60-84 limits assumed): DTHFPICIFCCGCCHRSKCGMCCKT
Description: Activity of anti-human hepcidin antibodies was evaluated in vivo in mice that were administered human hepcidin in an amount sufficient to generate a hypoferremic response. On day 0, female C57BL/6 mice were injected subcutaneously with a murine monoclonal antibody (Ab2.7) directed against human hepcidin. Control mice received murine IgG1 as an isotypic control. At day 3, the mice received a single intraperitoneal injection of 25 μg E. coli-derived recombinant human Hepcidin (rhHepc). Serum iron levels were analyzed two hours later. […] Statistics represent ANOVA with a Dunnett's post-hoc test comparing all groups against the saline control.

[2] = target: T3, E. coli-derived human hepcidin (Homo sapiens, UniProt P81172); assay: Biacore concurrent binding to hepcidin captured on antibody 1S1 surface (sandwich pairing); settings: 20 nM hepcidin on 1S1 surface, then 50 nM antibody
T3 construct: The pro-region of the protein was enzymatically cleaved by incubation with Kex protease; made in house; host or cells: E. coli
T3 sequence (P81172 60-84 limits assumed): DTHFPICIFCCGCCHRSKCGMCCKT
Description: Using Biacore analysis, a surface coated with antibody 1S1 was tested for the concurrent binding of hepcidin and another antibody (FIG. 28). Immobilization of anti-Hepc antibody 1S1 to the sensor chip surface was performed according to manufacturer's instructions using a continuous flow of 0.005% P-20/PBS buffer. Briefly, carboxyl groups on the sensor chip surfaces were activated by injecting 60 μL of a mixture containing 0.2 M N-ethyl-N′-(dimethylaminopropyl)carbodiimide (EDC) and 0.05 M N-hydroxysuccinimide (NHS). This was followed by injecting 1S1 diluted in 10 mM acetate, pH 4.0 at concentrations between 20 μg/mL. Excess reactive groups on the surfaces were deactivated by injecting 60 μL of 1 M ethanolamine. Final immobilized levels were 5,000-6,000 resonance units (RU) for the Ab 1S1 surface. A blank, mock-coupled reference surface was also prepared on the sensor chip. 20 nM E. coli-derived human hepcidin was injected over and bound to the 1S1 antibody surface. Then 50 nM antibody 2.7, 23F11, 26F11, and 1S1 were injected over the hepcidin/1S1 surface. After the antibody injection, the surfaces were regenerated by injecting 30 μL 10 mM HCl pH 2.0.

iron retention (ferritin) [1]: increase in iron retention
Molecule: recombinant hepcidin: human hepcidin produced recombinantly according to Examples 2 and 3 (CHO- or E. coli-derived)

serum iron levels after hepcidin injection (human hepcidin): hypoferremia
Molecule: rhHepc: E. coli-derived recombinant human Hepcidin

Second part, the molecule before the results:

Molecule: hydrogen-DTHFPICIFCCGCCHRSKCGMCCKT-free acid [synthetic hepcidin]
iron retention (ferritin) [1]: increase in iron retention

Molecule: urinary hepcidin: Human hepcidin isolated from urine of sepsis patients
iron retention (ferritin) [1]: increase in iron retention

B1: Antibody 26F11: human antibody from Xenomouse, SEQ ID NOs: 187-196 (antibody)
heavy: QVQLVESGGGVVQPGRSLRLSCAASGFTFSNYGMHWVRQAPGKGLEWVAVIWYVGSNKYYADSVKGRFTISRDNSKNTLYLQMNSLRAEDTAVYYCARAQEGMAPDAFDIWGQGTMVTVSSASTKGPSVFPLAPCSRSTSESTAALGCLVKDYFPEPVTVSWNSGALTSGVHTFPAVLQSSGLYSLSSVVTVPSSNFGTQTYTCNVDHKPSNTKVDKTVERKCCVECPPCPAPPVAGPSVFLFPPKPKDTLMISRTPEVTCVVVDVSHEDPEVQFNWYVDGVEVHNAKTKPREEQFNSTFRVVSVLTVVHQDWLNGKEYKCKVSNKGLPAPIEKTISKTKGQPREPQVYTLPPSREEMTKNQVSLTCLVKGFYPSDIAVEWESNGQPENNYKTTPPMLDSDGSFFLYSKLTVDKSRWQQGNVFSCSVMHEALHNHYTQKSLSLSPGK
light: SYELTQPPSVSVSPGQTASITCSGDKMGERYACWYQQKPGQSPILVIYQDTKRPSGIPERFSGSNSGNTATLTISGTQAMDEADYYCQAWYSSTNVVFGGGTKLTVLGQPKAAPSVTLFPPSSEELQANKATLVCLISDFYPGAVTVAWKADSSPVKAGVETTTPSKQSNNKYAASSYLSLTPEQWKSHRSYSCQVTHEGSTVEKTVAPTECS
ability to bind hepcidin concurrently with 1S1 (sandwich pair) [2]: markedly lower ability to bind to hepcidin concurrently with 1S1
